Patent US20060142193

Key:
[1] = biological target: endogenous ROCK1 of neonatal rat cardiomyocytes (UniProt Q63644)
TAT-SRF245A/254A = TAT-SRF245A/254A (UniProt P11831)
TAT-SRF = TAT-SRF (UniProt P11831)
[2] = biological target: T1, serum response factor (SRF) (UniProt P11831)
T1 sequence: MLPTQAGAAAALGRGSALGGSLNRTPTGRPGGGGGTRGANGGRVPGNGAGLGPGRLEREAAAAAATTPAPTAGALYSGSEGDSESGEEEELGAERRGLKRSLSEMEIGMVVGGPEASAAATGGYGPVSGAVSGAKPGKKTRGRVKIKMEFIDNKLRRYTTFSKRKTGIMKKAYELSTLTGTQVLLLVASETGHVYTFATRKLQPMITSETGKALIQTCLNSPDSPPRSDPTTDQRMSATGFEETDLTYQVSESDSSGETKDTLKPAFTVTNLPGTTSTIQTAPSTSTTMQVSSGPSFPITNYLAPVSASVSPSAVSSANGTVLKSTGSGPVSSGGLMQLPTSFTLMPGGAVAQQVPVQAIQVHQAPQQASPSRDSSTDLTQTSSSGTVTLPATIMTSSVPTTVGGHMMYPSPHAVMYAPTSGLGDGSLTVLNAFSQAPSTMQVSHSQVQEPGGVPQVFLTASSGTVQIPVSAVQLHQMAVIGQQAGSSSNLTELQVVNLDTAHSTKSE

endogenous ROCK1 of neonatal rat cardiomyocytes, sequence (Q63644 2-1369): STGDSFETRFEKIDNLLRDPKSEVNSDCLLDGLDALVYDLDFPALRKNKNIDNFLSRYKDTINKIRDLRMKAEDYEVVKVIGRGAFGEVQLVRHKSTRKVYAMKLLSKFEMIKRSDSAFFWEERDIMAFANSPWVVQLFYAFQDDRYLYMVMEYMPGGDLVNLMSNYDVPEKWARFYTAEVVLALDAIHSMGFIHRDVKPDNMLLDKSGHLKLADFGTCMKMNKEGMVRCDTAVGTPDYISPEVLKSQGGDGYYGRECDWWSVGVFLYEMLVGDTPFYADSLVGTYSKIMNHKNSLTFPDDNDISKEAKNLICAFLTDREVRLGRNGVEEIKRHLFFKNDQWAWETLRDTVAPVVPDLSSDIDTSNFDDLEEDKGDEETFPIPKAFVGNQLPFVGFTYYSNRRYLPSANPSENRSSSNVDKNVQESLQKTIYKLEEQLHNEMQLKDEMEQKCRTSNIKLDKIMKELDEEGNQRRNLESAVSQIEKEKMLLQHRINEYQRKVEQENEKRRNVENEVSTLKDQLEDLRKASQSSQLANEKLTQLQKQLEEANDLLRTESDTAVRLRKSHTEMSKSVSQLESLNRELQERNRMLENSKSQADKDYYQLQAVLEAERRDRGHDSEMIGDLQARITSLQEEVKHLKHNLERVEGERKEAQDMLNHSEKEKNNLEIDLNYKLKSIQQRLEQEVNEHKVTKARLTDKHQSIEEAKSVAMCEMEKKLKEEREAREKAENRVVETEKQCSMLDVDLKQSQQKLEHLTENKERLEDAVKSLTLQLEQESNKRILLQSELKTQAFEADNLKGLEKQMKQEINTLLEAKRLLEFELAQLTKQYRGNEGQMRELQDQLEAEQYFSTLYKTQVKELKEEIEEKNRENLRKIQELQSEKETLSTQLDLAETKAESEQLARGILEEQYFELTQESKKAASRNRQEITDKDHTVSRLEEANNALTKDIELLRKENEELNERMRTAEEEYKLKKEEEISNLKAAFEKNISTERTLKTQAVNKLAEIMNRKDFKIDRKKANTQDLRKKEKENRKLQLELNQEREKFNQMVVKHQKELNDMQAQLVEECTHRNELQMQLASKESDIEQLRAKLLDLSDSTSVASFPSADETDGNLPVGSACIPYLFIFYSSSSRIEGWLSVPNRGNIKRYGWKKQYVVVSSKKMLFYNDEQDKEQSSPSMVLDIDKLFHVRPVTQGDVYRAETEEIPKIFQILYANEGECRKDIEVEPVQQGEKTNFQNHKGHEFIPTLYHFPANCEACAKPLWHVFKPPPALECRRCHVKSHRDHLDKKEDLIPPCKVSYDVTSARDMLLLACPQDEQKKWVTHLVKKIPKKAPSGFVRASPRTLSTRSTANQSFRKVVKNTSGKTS

| Substance | 130 kDa ROCK1 cleavage fragment by Western blot of infected cardiomyocytes [1] | in vitro cleavage by recombinant caspase 3 (TAT-SRF245A/254A) | in vitro cleavage by recombinant caspase 3 (TAT-SRF) | in vitro cleavage of SRF [2] |
| --- | --- | --- | --- | --- |
| conditional caspase 3 (iCasp3) | The 130 kDa cleavage fragment of ROCK1 was detected in cardiomyocytes infected with Ad-G/iCasp3 and treated with CID |  |  |  |
| active caspase 3 (recombinant caspase 3) |  | SRF245A/254A mutant was resistant to caspase 3 cleavage | only TAT-SRF was cleaved by caspase 3 | Activated caspase 3 is able to cleave SRF in vitro |
